Reference: the supplement of paper PMC10126150
± gives the standard deviation of the averaged measurements.

System: ATP
Test: switch fluorescence ratio, 500 uM ATP over buffer (Cy3 cluster intensity, sum of 5 cycles each) (fold (ratio)); higher = stronger signal-on switching upon ATP binding; sequences stand for … in TCGTCGGCAGCGTCAGATGTGTATAAGAGACAGTTTTTTTTTTTTTTTTTTTTTTTTT…TC
Conditions: aptamer strand: ATP DNA aptamer (quencher-CACCTGGGGGAGTATTGCGGAGGAAGG + anchor), 100 nM annealed; ATP concentration: 500 uM
Method in brief: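 Exposure to 500 uM ATP lasted 15 min at 22 °C before imaging, and a selection-buffer image was taken beforehand, for Cy3-labelled switching-strand clusters on a modified Illumina MiSeq flow-cell annealed to 100 nM quencher-labelled ATP aptamer. Five buffer/ATP cycles were run with NaOH stripping and re-annealing between them. The fluorescence ratio per cluster is summed target-cycle over summed buffer-cycle Cy3 intensity, averaged per switch-domain sequence. Clusters outside 100-1000 RFU were excluded.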

| Sequence | switch fluorescence ratio |
| --- | --- |
| TGGGTTTGTT | 0.986 ± 0.03 |
| AAGATCATCT | 1.01 ± 0.023 |
| TAGTAAGTTT | 0.998 ± 0.012 |
| TGGGAGGGAA | 0.995 ± 0.013 |
| CAGTGGAGTG | 0.98561 ± 8.7e-05 |
| GGTCCGTCGA | 1.02 ± 0.064 |
| AGTTAAGGCC | 1.09 ± 0.092 |
| GTATTTTTGG | 0.972 ± 0.03 |
| TGCACTGTTT | 1.01 ± 0.038 |
| TGGCTGCAGA | 0.972 ± 0.064 |
| GGGTTTCTCT | 0.994 ± 0.032 |
| GCTCTATTAT | 1.11 ± 0.16 |
| AGTAAGGCTA | 1 ± 0.051 |
| CGTTATGGGA | 0.976 ± 0.022 |
| AGCAAACGGG | 1.26 ± 0.015 |
| CTGAAAGATA | 0.977 ± 0.055 |
| TTTAGGGTGT | 1.05 ± 0.071 |
| ATTGATGGGG | 0.976 ± 0.042 |
| GACTAAGTGT | 1 ± 0.022 |
| CTCGGTTAGG | 0.9819 ± 0.0095 |
| AGGGAGTCTC | 0.98 ± 0.031 |
| GGTATTTTGG | 0.953 ± 0.035 |
| AGGTTGGTGG | 1 ± 0.016 |

| Sequence | switch fluorescence ratio |
| --- | --- |
| AATTTCGCTT | 1 ± 0.037 |
| GCTTGGTGTC | 1.05 ± 0.014 |
| GCGATTGATG | 1.02 ± 0.026 |
| AGGGTAGGTC | 1.06 ± 0.087 |
| GACTATGTTT | 1 ± 0.044 |
| ACGGAGCCTT | 1.32 ± 0.036 |
| GGTACGTCGG | 0.979 ± 0.048 |
| CCTAAATTTT | 1.01 ± 0.024 |
| GGGACAATGA | 1 ± 0.038 |
| GTCGAAGGAA | 1 ± 0.011 |
| GGCGCATTAT | 1.66 ± 0.061 |
| TATTGGTGCA | 0.967 ± 0.017 |
| AGTACTGTGG | 0.996 ± 0.032 |
| GTAAGATTGA | 0.986 ± 0.015 |
| GAGGGCAGCA | 1.01 ± 0.048 |
| GCCGTATGCT | 0.9859 ± 0.0092 |
| TCAGTGGGGG | 0.97 ± 0.019 |
| GCGGCGTGTC | 1.028 ± 0.0083 |
| CGGAACAGTT | 1.02 ± 0.024 |
| AAAAGTTTTG | 1.01 ± 0.011 |
| TTTGTTGTGT | 1.02 ± 0.025 |
| ATGTTCAACT | 0.998 ± 0.016 |
| AAGTAGCTAT | 1.01 ± 0.043 |

| Sequence | switch fluorescence ratio |
| --- | --- |
| TTTTTGTGAG | 1.01 ± 0.039 |
| TATTCGGTCG | 0.993 ± 0.025 |
| TATTAATTCT | 0.972 ± 0.036 |
| CTGGGAAGTG | 0.978 ± 0.003 |
| TGTTTTACTG | 0.996 ± 0.015 |
| CAGGAGAGGG | 1.02 ± 0.029 |
| CCTGCTCATC | 1.99 ± 0.22 |
| TTTAAGTAAG | 1.02 ± 0.012 |
| GTTGGGAAGT | 0.994 ± 0.038 |
| ACCTGGACCT | 1.33 ± 0.032 |
| AGATGACGGG | 0.975 ± 0.033 |
| TAGTTGGGTT | 0.986 ± 0.041 |
| ATAGGGAGTA | 0.979 ± 0.061 |
| TTTCAGGTCG | 1.02 ± 0.088 |
| TAAGGGGAAG | 1.04 ± 0.015 |
| GGGGCCCTTG | 0.97602 ± 9.7e-05 |
| CTATCCATGG | 0.993 ± 0.017 |
| TGTAGTGAGT | 0.959 ± 0.037 |
| CAGGTAGGAG | 0.985 ± 0.017 |
| TTGCGTATGG | 1.01 ± 0.021 |
| CCAGGTAAGT | 1.11 ± 0.11 |
| TATTTAGACC | 1.04 ± 0.012 |
| GGTATTCCGT | 1.03 ± 0.045 |

| Sequence | switch fluorescence ratio |
| --- | --- |
| ATGCACGGAA | 1.05 ± 0.036 |
| GCTACTACTG | 1.05 ± 0.022 |
| TGATCGGGGA | 1.028 ± 0.0063 |
| TCATCCCGGG | 1.052 ± 0.0077 |
| AAGGATTTTG | 0.994 ± 0.022 |
| GGGAGTAAAG | 0.989 ± 0.013 |
| GTGTGATCCG | 1.01 ± 0.049 |
| AGTTGGGGGT | 0.998 ± 0.025 |
| TTTTGCTGCA | 0.978 ± 0.013 |
| AGAGGGAACA | 1.01 ± 0.02 |
| TTTATGCGGG | 1.02 ± 0.048 |
| TTGGATTCGG | 0.972 ± 0.017 |
| TACTACTTGC | 1.05 ± 0.0085 |
| TTGGGTTTG | 0.964 ± 0.011 |
| CATGATTGCG | 0.985 ± 0.024 |
| CAGGAGGGGA | 1.01 ± 0.011 |
| ATGGAGGCGC | 0.981 ± 0.028 |
| ATACGATGAT | 1.04 ± 0.017 |
| CTGTAGGCCC | 1.05 ± 0.097 |
| GCGACGGGGA | 1.08 ± 0.021 |
| CGGTGTATCG | 0.983 ± 0.027 |
| TCACGGTTGC | 1.04 ± 0.016 |
| GAGGTTTAGA | 0.98753 ± 9.8e-05 |

| Sequence | switch fluorescence ratio |
| --- | --- |
| TCTTATTCAA | 0.98 ± 0.012 |
| GCCCTGGGTC | 1.02 ± 0.06 |
| TCATGTAGAA | 1.01 ± 0.02 |
| TGGGGGGACG | 1.03 ± 0.086 |
| AGCATTGGCT | 1.016 ± 0.0011 |
| TGGTTTTAAT | 0.973 ± 0.028 |
| TGGGGGGAGT | 1.01 ± 0.024 |
| ATAATACGCC | 1.17 ± 0.013 |
| TATGGGAAGA | 0.985 ± 0.027 |
| CCTGGGTCTG | 1.001 ± 0.006 |
| TGCGATGCGG | 0.979 ± 0.037 |
| TATTTCATTT | 1.06 ± 0.072 |
| ACATCGGATG | 0.995 ± 0.025 |
| ATCAACGGTG | 1.01 ± 0.044 |
| ACGGCAAGGA | 1.12 ± 0.028 |
| AGGTTTATGC | 0.977 ± 0.066 |
| AAAATGCGAG | 1 ± 0.0062 |
| GAAATGGCGT | 0.986 ± 0.038 |
| AAATAACGAG | 1 ± 0.036 |
| CGTAGCTTTT | 1.82 ± 0.67 |
| TACCTGGGTA | 0.948 ± 0.028 |
| ACTCTGTGC | 1.21 ± 0.032 |
| TTTTATGGTT | 0.997 ± 0.032 |

| Sequence | switch fluorescence ratio |
| --- | --- |
| GTCCCGGTTT | 1.02 ± 0.095 |
| TACCGTGGGT | 0.99 ± 0.021 |
| AATCGTGGTG | 0.982 ± 0.047 |
| TTTTTTAGAT | 0.985 ± 0.022 |
| GGTCTTAACT | 0.967 ± 0.028 |
| AGGGTGTCGA | 1.02 ± 0.012 |
| GATTGGTTAT | 0.962 ± 0.029 |
| ATAGAATTAA | 0.989 ± 0.013 |
| CGGTTAGTGT | 0.971 ± 0.035 |
| CGATTAAATG | 0.993 ± 0.013 |
| GCAAGTTGAT | 0.96591 ± 0.00067 |
| CACGGGGAAG | 1.02 ± 0.047 |
| CAAATTGGAC | 1.03 ± 0.0071 |
| CTGCAGGGGA | 1.05 ± 0.048 |
| GTAAGGGGAT | 0.988 ± 0.016 |
| ATTTAAGAGG | 1 ± 0.041 |
| TTATTAGATT | 1.01 ± 0.005 |
| TTTTGGGGCA | 1.07 ± 0.13 |
| AAGAGGTCTC | 0.9681 ± 0.0023 |
| GTGACAGGTG | 1.47 ± 0.053 |
| GAAGTGTGGG | 0.962 ± 0.03 |
| AGACTCGGGT | 1.02 ± 0.0013 |
| GGGGTGAGTT | 0.931 ± 0.072 |

| Sequence | switch fluorescence ratio |
| --- | --- |
| GATTGACAAT | 1.03 ± 0.031 |
| AGGGTTACGA | 0.976 ± 0.038 |
| AGGGTAACGG | 0.995 ± 0.028 |
| TATGGGGAAT | 1.03 ± 0.098 |
| TCTGACGTA | 1.04 ± 0.0091 |
| CAAATGGTTC | 0.9582 ± 0.0043 |
| AACTAGATG | 0.982 ± 0.025 |
| AGGAGCAGCG | 0.919 ± 0.03 |
| AGCTGCTTGC | 1.04 ± 0.066 |
| ACAATGCTTT | 1.03 ± 0.017 |
| TTTGATCTT | 0.974 ± 0.03 |
| GGCGAAGTTC | 0.99 ± 0.021 |
| AATTAGGGGT | 1.01 ± 0.02 |
| TGGGAATAGT | 1 ± 0.049 |
| CATGTTGGTA | 0.9946 ± 0.0076 |
| TCGTGGTTTA | 0.994 ± 0.021 |
| GTGGTTCTTT | 0.989 ± 0.044 |
| GATCTGGCTT | 0.976 ± 0.031 |
| GGCAATCACC | 1.402 ± 0.0063 |
